Data reported in the supplement of paper PMC7877785.
± gives the uncertainty stated by the source.

Experiment: self-splicing fitness, log relative to wild type (ln ratio); higher = more splicing; Tetrahymena group I intron in knt gene, E. coli kanamycin selection, DiMSum; sequences stand for … in CUCUCU…GGAGGGAAAAGUUAUCAGGCAUGCACCUGGUAGCUAGUCUUUAAACCAAUAGAUUGCAUCGGUUUAAAAGGCAAGACCGUCAAAUUGCGGGAAAGGGGUCAACAGCCGUUCAGUACCAAGUCUCAGGGGAAACUUUGAGAUGGCCUUGCAAAGGGUAUGGUAAUAAGCUGACGGACAUGGUCCUAACCACGCAGCCAAGUCCUAAGUCAACAGAUCUUCUGUUGAUAUGGAUGCAGUUCACAGACUAAAUGUCGGUCGGGGAAGAUGUAUUCUUCUCAUAAGAUAUAGUCGGACCUCUCCUUAAUGGGAGCUAGCGGAUGAAGUGAUGCAACACUGGAGCCGCUGGGAACUAAUUUGUAUGCGAAAGUAUAUUGAUUAGUUUUGGAGUACUCGUGGUCG
Summary of the method: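 Six replicate transformations of E. coli BL21(DE3) with a pET-22b(+) library were grown overnight at 37°C or 30°C. The library randomised all eight P1ex-region intron nucleotides, the intron lying in the knt kanamycin-resistance gene, and plates were LB agar with or without 25 μg/mL kanamycin plus 100 μg/mL carbenicillin, 50 μM IPTG and 0.2% rhamnose. Pooled colonies were amplicon-sequenced on an Illumina HiSeq 2500, and fitness is the DiMSum error-weighted combination of wild-type-normalised replicate fold changes, kanamycin versus none.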

Sequence | self-splicing fitness (ln) (30 °C) | self-splicing fitness (ln) (37 °C)
GACGAGCAAUAUUACGCCCA | -2.06 ± 0.3 | -2.17 ± 0.28
GACGAGCAAUAUUACGCGAA | -2.91 ± 0.31 | -1.16 ± 0.21
GACGAGCAAUAUUACGCGCA | -1.71 ± 0.23 | -1.3 ± 0.21
GACGAGCAAUAUUACGCGCU | -3.04 ± 0.48 | -2.87 ± 0.31
GACGAGCAAUAUUACGCUGU | -3.17 ± 0.3 | -2.9 ± 0.33
GACGAGCAAUAUUACGGACA | -1.57 ± 0.43 | -0.484 ± 0.14
GACGAGCAAUAUUACGGAUG | -2.45 ± 0.24 | -1.12 ± 0.16
GACGAGCAAUAUUACGGCGG | -2.65 ± 0.33 | -2.42 ± 0.29
GACGAGCAAUAUUACGGCUU | -1.43 ± 0.11 | -0.332 ± 0.14
GACGAGCAAUAUUACGGGCU | -3.61 ± 0.2 | -2.21 ± 0.19
GACGAGCAAUAUUACGGUUA | -1.65 ± 0.12 | -0.972 ± 0.1
GACGAGCAAUAUUACGUUCG | -4.1 ± 0.24 | -2.24 ± 0.23
GACUAGCAAUAUUACGAAAA | -2.41 ± 0.25 | -0.685 ± 0.15
GACUAGCAAUAUUACGAAAC | -1.3 ± 0.12 | -0.114 ± 0.13
GACUAGCAAUAUUACGAAUA | -2.54 ± 0.24 | -0.356 ± 0.21
GACUAGCAAUAUUACGAGAC | -3.56 ± 0.43 | -1.76 ± 0.27
GACUAGCAAUAUUACGAUUC | -0.598 ± 0.065 | -0.35 ± 0.072
GACUAGCAAUAUUACGCAGC | -3.5 ± 0.23 | -2.2 ± 0.31
GACUAGCAAUAUUACGCAUG | -1.24 ± 0.063 | -0.455 ± 0.075
GACUAGCAAUAUUACGCCAC | – | -1.76 ± 0.41
GACUAGCAAUAUUACGCCGU | -2.15 ± 0.11 | -0.995 ± 0.1
GACUAGCAAUAUUACGCCUG | -0.826 ± 0.12 | -0.091 ± 0.14
GACUAGCAAUAUUACGCGUC | -3.14 ± 0.16 | -2.78 ± 0.23
GACUAGCAAUAUUACGCUAC | -1.81 ± 0.16 | -1.33 ± 0.2
GACUAGCAAUAUUACGCUCG | -1.01 ± 0.14 | -0.0622 ± 0.19

Sequence | self-splicing fitness (ln) (30 °C) | self-splicing fitness (ln) (37 °C)
GACUAGCAAUAUUACGCUCU | -1.87 ± 0.12 | -0.12 ± 0.14
GACUAGCAAUAUUACGGCCA | -0.241 ± 0.16 | -0.327 ± 0.26
GACUAGCAAUAUUACGGCCG | -0.632 ± 0.13 | -0.578 ± 0.16
GACUAGCAAUAUUACGGGUA | -0.752 ± 0.076 | -0.669 ± 0.078
GACUAGCAAUAUUACGGUCA | -1.13 ± 0.27 | -1.36 ± 0.26
GACUAGCAAUAUUACGGUUC | -3.18 ± 0.17 | -2.7 ± 0.32
GACUAGCAAUAUUACGGUUG | -1.25 ± 0.072 | -0.449 ± 0.092
GACUAGCAAUAUUACGUACC | -1.65 ± 0.15 | -0.961 ± 0.14
GACUAGCAAUAUUACGUACG | -0.653 ± 0.066 | -0.585 ± 0.098
GACUAGCAAUAUUACGUAGA | -0.815 ± 0.077 | -1.17 ± 0.097
GACUAGCAAUAUUACGUAUG | -1.82 ± 0.068 | -1.33 ± 0.091
GACUAGCAAUAUUACGUCUG | -3.86 ± 0.25 | -1.57 ± 0.23
GACUAGCAAUAUUACGUUAA | -2.16 ± 0.12 | -0.716 ± 0.11
GACUAGCAAUAUUACGUUAU | -2.4 ± 0.098 | -1.28 ± 0.11
GACUAGCAAUAUUACGUUCG | -3.18 ± 0.22 | -0.787 ± 0.13
GACUAGCAAUAUUACGUUUG | -2.63 ± 0.13 | -2.46 ± 0.2
GAGAAGCAAUAUUACGAACU | -0.774 ± 0.085 | -0.288 ± 0.092
GAGAAGCAAUAUUACGAAUA | -1.88 ± 0.25 | -0.917 ± 0.2
GAGAAGCAAUAUUACGACCU | 0.392 ± 0.1 | -0.128 ± 0.096
GAGAAGCAAUAUUACGAUCU | -1.66 ± 0.097 | -0.515 ± 0.095
GAGAAGCAAUAUUACGAUGA | -1.04 ± 0.12 | -0.334 ± 0.11
GAGAAGCAAUAUUACGAUUA | -0.739 ± 0.099 | 0.245 ± 0.081
GAGAAGCAAUAUUACGCAAA | -3.07 ± 0.14 | -1.8 ± 0.15
GAGAAGCAAUAUUACGCCGU | -2.18 ± 0.21 | -1.89 ± 0.21
GAGAAGCAAUAUUACGCGCC | -1.88 ± 0.33 | -0.596 ± 0.23

Sequence | self-splicing fitness (ln) (30 °C) | self-splicing fitness (ln) (37 °C)
GAGAAGCAAUAUUACGCGUC | -3.46 ± 0.34 | -2.31 ± 0.33
GAGAAGCAAUAUUACGCUAC | -3.38 ± 0.18 | -1.58 ± 0.18
GAGAAGCAAUAUUACGCUCU | -3.26 ± 0.35 | -2.25 ± 0.44
GAGAAGCAAUAUUACGGACU | -0.326 ± 0.091 | -0.101 ± 0.11
GAGAAGCAAUAUUACGGCAU | -0.391 ± 0.07 | 0.567 ± 0.11
GAGAAGCAAUAUUACGGCUC | – | -2.07 ± 0.21
GAGAAGCAAUAUUACGGGUG | -1.72 ± 0.15 | -1.88 ± 0.14
GAGAAGCAAUAUUACGGUCA | -0.263 ± 0.1 | 0.383 ± 0.12
GAGAAGCAAUAUUACGUAAA | -2.16 ± 0.14 | -0.647 ± 0.17
GAGAAGCAAUAUUACGUCAU | -2.57 ± 0.097 | -0.577 ± 0.089
GAGAAGCAAUAUUACGUCGA | -1.54 ± 0.13 | -1.09 ± 0.14
GAGAAGCAAUAUUACGUCUC | -4.38 ± 0.46 | -2.39 ± 0.24
GAGAAGCAAUAUUACGUGAU | -1.81 ± 0.084 | -0.801 ± 0.11
GAGAAGCAAUAUUACGUGUC | -3.95 ± 0.27 | -2.1 ± 0.33
GAGAAGCAAUAUUACGUUCA | -0.919 ± 0.2 | -0.374 ± 0.22
GAGAAGCAAUAUUACGUUCC | -3.57 ± 0.32 | -1.65 ± 0.29
GAGCAGCAAUAUUACGAAAA | -2.68 ± 0.39 | –
GAGCAGCAAUAUUACGAAUU | -1.95 ± 0.14 | -1.45 ± 0.15
GAGCAGCAAUAUUACGACGC | 0.00947 ± 0.079 | 0.534 ± 0.1
GAGCAGCAAUAUUACGAGAC | -2.97 ± 0.3 | -0.985 ± 0.2
GAGCAGCAAUAUUACGAGGC | -2.67 ± 0.47 | –
GAGCAGCAAUAUUACGCGUC | -3.39 ± 0.29 | -2.8 ± 0.3
GAGCAGCAAUAUUACGCGUU | -3.08 ± 0.12 | -1.32 ± 0.12
GAGCAGCAAUAUUACGCUAA | -1.3 ± 0.15 | -0.144 ± 0.18
GAGCAGCAAUAUUACGCUCG | -2.11 ± 0.33 | -0.285 ± 0.22

Sequence | self-splicing fitness (ln) (30 °C) | self-splicing fitness (ln) (37 °C)
GAGCAGCAAUAUUACGGAGU | -3.32 ± 0.26 | -3.07 ± 0.4
GAGCAGCAAUAUUACGGCCC | -1.51 ± 0.15 | -1.09 ± 0.19
GAGCAGCAAUAUUACGGCCG | -1.05 ± 0.17 | -0.59 ± 0.27
GAGCAGCAAUAUUACGGGCC | -2.94 ± 0.33 | -1.21 ± 0.29
GAGCAGCAAUAUUACGGGCU | -3.92 ± 0.28 | -2.55 ± 0.34
GAGCAGCAAUAUUACGGUAG | -4.29 ± 0.2 | -3.24 ± 0.24
GAGCAGCAAUAUUACGGUCU | -0.727 ± 0.12 | -0.857 ± 0.14
GAGCAGCAAUAUUACGUACG | -3.24 ± 0.21 | -1.38 ± 0.17
GAGCAGCAAUAUUACGUACU | -0.0719 ± 0.068 | -0.502 ± 0.085
GAGCAGCAAUAUUACGUGUA | -2 ± 0.12 | -0.876 ± 0.094
GAGCAGCAAUAUUACGUUGA | -2.38 ± 0.17 | -1.32 ± 0.13
GAGGAGCAAUAUUACGAAAG | – | -2.01 ± 0.33
GAGGAGCAAUAUUACGAAGC | -1.73 ± 0.32 | -2.22 ± 0.4
GAGGAGCAAUAUUACGAAUU | -3.43 ± 0.3 | –
GAGGAGCAAUAUUACGACGC | -0.403 ± 0.15 | 0.209 ± 0.14
GAGGAGCAAUAUUACGAUCG | -2.15 ± 0.22 | -1.2 ± 0.32
GAGGAGCAAUAUUACGCAAC | -2.75 ± 0.38 | –
GAGGAGCAAUAUUACGCAGU | -2.89 ± 0.28 | -3.66 ± 0.42
GAGGAGCAAUAUUACGCGGG | -2.11 ± 0.31 | -2.66 ± 0.34
GAGGAGCAAUAUUACGCUCU | -2.18 ± 0.42 | -1.73 ± 0.47
GAGGAGCAAUAUUACGCUUA | -1.5 ± 0.16 | -1.42 ± 0.21
GAGGAGCAAUAUUACGGAGC | – | -0.748 ± 0.26
GAGGAGCAAUAUUACGGCAU | – | -1.87 ± 0.46
